Test results published in the supplement of paper PMC9732359.
± gives the uncertainty stated by the source.

Test: protein stability index of a GFP-peptide fusion (yeast GPS) (PSI 1-4); higher = more stable; sorted into four equal gates, so the index is relative within each strain
Method in brief: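 Mid-log yeast cultures in leucine-free medium, carrying a pooled plasmid library, were sorted into four equal gates by their GFP/Cherry fluorescence ratio. Each plasmid expressed Cherry along with GFP fused upstream of a tiled 17-residue yeast protein peptide. Plasmids recovered from each gate were PCR-amplified and Illumina-sequenced, with reads assigned to strains by barcodes. The protein stability index was obtained by summing each gate's read frequency weighted by its gate number.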

Row | Sequence | protein stability index (doa10∆) | protein stability index (pdr5∆) | protein stability index (san1∆) | protein stability index (ubr1∆)
1 | WMMNGALQILNSGIIPG [FAS2] | 1.7 ± 0.092 | 1.86 ± 0.092 | 2.52 ± 0.15 | 1.46 ± 0.24
2 | SELQPQNRSLQEHNIQD [SNF2] | 2.81 ± 0.041 | 3.24 ± 0.05 | 3.08 ± 0.04 | 3.09 ± 0.038
3 | SLKKVDEIKAQRKEIKD [SMC4] |  | 2.94 ± 0.18 | 3.29 ± 0.16 | 3.4 ± 0.25
4 | GPAAAIEFEYDPWNKLK [RPB3] | 3.04 ± 0.081 | 3.08 ± 0.078 | 3.05 ± 0.052 | 3.25 ± 0.065
5 | YASKINRAEGPEELARI [RGR1] | 3.31 ± 0.12 | 3.26 ± 0.085 | 3.31 ± 0.067 | 3.24 ± 0.071
6 | DPNNPVDFDGLDIKRVG [SNF12] | 3.5 ± 0.087 | 3.32 ± 0.086 | 3.32 ± 0.097 | 3.25 ± 0.063
7 | VEITFGKEFGDVSVKMG [RRP45] | 1.38 ± 0.073 | 1.68 ± 0.083 | 1.32 ± 0.19 | 1.79 ± 0.12
8 | GRNGSNGNDESSEYETI [NUT1] | 3.13 ± 0.13 | 3.34 ± 0.11 | 3.09 ± 0.086 | 3 ± 0.12
9 | SYVAVLGMGKAVEKTLA [POP7] | 1.75 ± 0.13 | 2.17 ± 0.081 | 1.82 ± 0.11 | 1.61 ± 0.086
10 | KKINRRNETSVDEEDEN [YCG1] | 3.41 ± 0.1 | 3.38 ± 0.098 | 2.79 ± 0.14 | 3.31 ± 0.12
11 | AKFRLILIESRIHRLAR [RPS13] | 1.52 ± 0.099 | 1.97 ± 0.18 | 1.7 ± 0.18 | 2.5 ± 0.15
12 | STSNTPSPPNVIITDGT [YDL088C/ASM4] | 2.79 ± 0.031 | 2.95 ± 0.031 | 2.9 ± 0.035 | 2.956 ± 0.029
13 | ELEFIQSLANIQYVTYL [SOH1] | 2.48 ± 0.068 | 2.54 ± 0.053 | 2.71 ± 0.052 | 2.72 ± 0.041
14 | KELQYDNEQNLESDFVT [PRE2] | 2.93 ± 0.092 | 3.16 ± 0.075 | 2.91 ± 0.075 | 3.02 ± 0.055
15 | KGPLLIERIGHLLSINY [PCI8] | 2.35 ± 0.11 | 2.71 ± 0.15 |  | 3.11 ± 0.15
16 | LPIESQFVSKLVDNLNA [BRR2] | 2.32 ± 0.052 | 2.34 ± 0.049 | 2.5 ± 0.072 | 2.4 ± 0.059
17 | IFAGAFVFQTVFDTAIT [QCR9] | 1.61 ± 0.048 | 1.35 ± 0.033 | 1.48 ± 0.076 | 1.67 ± 0.04
18 | MCGVIVKQYNKKWPQFY [SIN4] | 1.65 ± 0.13 | 1.99 ± 0.096 | 1.62 ± 0.097 | 1.74 ± 0.046
19 | ANCQRQLTEFWTELCQR [NNF1] | 3.09 ± 0.081 | 2.87 ± 0.08 | 3 ± 0.075 | 2.82 ± 0.099
20 | PVLFNRQPSLHKMSMMA [RPO21] | 2.54 ± 0.11 | 2.95 ± 0.093 | 3.05 ± 0.23 | 2.23 ± 0.16
21 | PTFTFGSSALADNKEDV [YLR335W/NUP2] | 3.13 ± 0.074 | 3.06 ± 0.049 | 3.06 ± 0.041 | 3.09 ± 0.033
22 | EEGEFIIDLYSLPEGLL [TAF14] | 3.4 ± 0.088 | 3.54 ± 0.085 | 3.57 ± 0.058 | 3.52 ± 0.063
23 | TVALREIRRFQKSTELL [HHT1] | 2.99 ± 0.098 | 2.91 ± 0.087 | 3.07 ± 0.068 | 3.02 ± 0.078
24 | ILDPSTEYCVGDYVAYQ [YMR129W/POM152] | 2.83 ± 0.19 | 3.63 ± 0.18 | 2.47 ± 0.21 | 
25 | FSKGDADVLVDRVVSSD [SRP72] | 3.28 ± 0.091 | 3.2 ± 0.098 | 3.02 ± 0.098 | 3.04 ± 0.081

Row | Sequence | protein stability index (doa10∆) | protein stability index (pdr5∆) | protein stability index (san1∆) | protein stability index (ubr1∆)
26 | NGAVGKREGKTRLLNIV [ISW2] | 3.27 ± 0.12 | 2.95 ± 0.11 | 3.03 ± 0.051 | 2.97 ± 0.088
27 | EDEDEDDETPSCEVEEI [SNU114] | 3.05 ± 0.051 | 2.22 ± 0.05 | 2.99 ± 0.056 | 2.85 ± 0.044
28 | EVPEGVTVSIKSRIVKV [RPL9A] | 1.51 ± 0.064 | 1.86 ± 0.061 | 1.57 ± 0.097 | 2.26 ± 0.091
29 | FIDSICKLFDKISFNLR [SRB8] | 2.23 ± 0.054 | 2.23 ± 0.046 | 1.96 ± 0.063 | 1.98 ± 0.053
30 | EPLSDTEEPDLAIADVE [DSN1] | 2.96 ± 0.081 | 2.81 ± 0.067 | 3.09 ± 0.043 | 3.24 ± 0.099
31 | TLTKISMLFKTSQKMTS [MCD1] | 1.92 ± 0.082 | 2.83 ± 0.16 | 2.45 ± 0.13 | 3.53 ± 0.19
32 | RALRRALTKFEASQVTE [RPL35A] |  | 2.56 ± 0.14 | 3.11 ± 0.097 | 3.19 ± 0.1
33 | MHALKNRSEQNGQEQQG [RGR1] |  | 3.06 ± 0.21 |  | 3.06 ± 0.21
34 | NSLLSNFNDIPPSVTLQ [YDL088C/ASM4] | 2.63 ± 0.081 | 1.98 ± 0.072 | 2.04 ± 0.11 | 2.72 ± 0.11
35 | TPKITAAEKSFKPPKNK [SEC65] | 2.9 ± 0.28 | 3.14 ± 0.2 | 3.04 ± 0.12 | 3.14 ± 0.12
36 | ELNVDSMDVDDKNSGVK [ITC1] | 1.97 ± 0.1 | 1.27 ± 0.042 | 1.68 ± 0.1 | 1.43 ± 0.06
37 | FPNIAIRPTELRLPFSA [PRP8] | 2.11 ± 0.084 | 1.85 ± 0.086 | 1.93 ± 0.09 | 2.23 ± 0.076
38 | NVESVGSIPVDQVVVRG [RPB3] | 2.63 ± 0.057 | 2.45 ± 0.072 | 2.3 ± 0.07 | 2.23 ± 0.059
39 | KIKHGSVTEIPLKLSGE [YMR129W/POM152] | 2.77 ± 0.07 | 2.93 ± 0.057 | 2.58 ± 0.072 | 2.97 ± 0.086
40 | ETATLIMNELYRMKGGR [SMC3] | 3.07 ± 0.088 | 3.21 ± 0.12 | 2.82 ± 0.1 | 3.26 ± 0.084
41 | LEALMDILLCYQKLFSQ [SRB8] | 2.98 ± 0.055 | 3.16 ± 0.052 | 3.18 ± 0.048 | 3.05 ± 0.081
42 | VFSHAQTAVTCESCSTV [RPS27B] | 1.57 ± 0.13 | 2.46 ± 0.14 | 2.24 ± 0.15 | 2.04 ± 0.11
43 | QITPTVPHSHPSDMVIP [SNF12] | 2.69 ± 0.044 | 2.59 ± 0.045 | 2.63 ± 0.046 | 2.59 ± 0.034
44 | QSNINTNAPLRTLNIQP [YIL149C/MLP2] | 2.61 ± 0.11 | 2.36 ± 0.09 | 1.99 ± 0.086 | 2.19 ± 0.076
45 | NLLKDEGVTPGRIRTTR [SSN3] | 3.1 ± 0.26 | 2.87 ± 0.23 | 3.26 ± 0.12 | 
46 | SMKMELLKKELLTIEPK [SMC2] | 2.85 ± 0.081 | 2.69 ± 0.064 | 2.8 ± 0.07 | 2.61 ± 0.053
47 | VSTPEKWDITTRNSNNL [BRR2] | 3.27 ± 0.14 | 3.19 ± 0.17 | 3.26 ± 0.082 | 3.04 ± 0.069
48 | FNSVVNLSRYPKSGIDI [MTR3] | 2.66 ± 0.055 | 2.96 ± 0.086 | 2.82 ± 0.079 | 3.03 ± 0.075
49 | PERWLPLRDRSTYRPKK [SRP72] | 3.29 ± 0.2 | 3.05 ± 0.22 | 2.89 ± 0.2 | 3.64 ± 0.28
50 | MFNPLHESYCLPMDTNL [YMR129W/POM152] | 2.39 ± 0.059 | 2.83 ± 0.055 | 2.75 ± 0.058 | 2.36 ± 0.056
